Two substances from article PMC12507517 can be followed below.

The data set has as its target RelA homodimer (UniProt Q04206). Put plainly: BLI. Particulars: EMSA: 10 mM Tris-HCl pH 7.5, 50 mM NaCl, 10% glycerol, 1% NP-40, 1 mM EDTA, 0.1 mg/mL salmon sperm DNA, room temp; BLI: 25 mM Tris-HCl pH 7.5, 150 mM NaCl ….

Sequence of RelA homodimer (Q04206 whole entry): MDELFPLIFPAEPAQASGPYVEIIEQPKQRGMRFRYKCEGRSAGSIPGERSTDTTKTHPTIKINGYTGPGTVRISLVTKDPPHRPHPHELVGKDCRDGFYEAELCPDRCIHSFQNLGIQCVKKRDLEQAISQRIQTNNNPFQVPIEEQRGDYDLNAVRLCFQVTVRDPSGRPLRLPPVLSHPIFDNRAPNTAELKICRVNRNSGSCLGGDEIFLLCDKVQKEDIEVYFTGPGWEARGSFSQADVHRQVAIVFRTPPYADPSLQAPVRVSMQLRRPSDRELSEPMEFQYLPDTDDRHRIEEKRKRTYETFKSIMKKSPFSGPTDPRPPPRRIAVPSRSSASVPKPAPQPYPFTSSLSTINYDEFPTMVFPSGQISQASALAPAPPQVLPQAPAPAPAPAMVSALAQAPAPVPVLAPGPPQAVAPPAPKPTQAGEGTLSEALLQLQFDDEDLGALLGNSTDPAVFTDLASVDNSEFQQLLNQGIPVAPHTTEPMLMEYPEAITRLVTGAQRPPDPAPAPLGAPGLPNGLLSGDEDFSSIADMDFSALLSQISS

As for STX11 kB (weak), the Kd turned out to be 250 nM. To IFN-b1 kB (strong) belongs 27 nM.
